# Assay results from US20260139030A1.
# Target: TNFα (Examples 10 and 11)
# Assay: cell-based or functional assay
row,"SEAP activity (NFκB/AP-1 reporter) in HEK-Blue Dectin2 cells, reduction against TNFα plus irrelevant protein",Substance
1,4 fold,TNFR2-Fc-Clec7a chimeric protein (Examples 10 and 11) (Fc fusion; the values are: fold reduction in SEAP activity)
2,> 20 fold,TNFR2-Fc-Dectin2 chimeric protein (Examples 10 and 11) (Fc fusion; the values are: fold reduction in SEAP activity)
